Targets include human LAIR2 (Homo sapiens, UniProt Q6ISS4); LAIR1 from mouse (Mus musculus, UniProt Q8BG84); LAIR1 from rat (Rattus norvegicus, UniProt P0C1X9).
What all share (test): SPR
Experiment [1] addresses NGM438, humanized IgG1 effector-less monoclonal antibody against LAIR1.
Experiment [2] concerns the target recombinant human LAIR1-his (Homo sapiens, UniProt Q6GTX8).

These results are taken from article PMC11293989 (Molecular cancer therapeutics, 2024).

LAIR1 from rat, sequence (P0C1X9 22-263): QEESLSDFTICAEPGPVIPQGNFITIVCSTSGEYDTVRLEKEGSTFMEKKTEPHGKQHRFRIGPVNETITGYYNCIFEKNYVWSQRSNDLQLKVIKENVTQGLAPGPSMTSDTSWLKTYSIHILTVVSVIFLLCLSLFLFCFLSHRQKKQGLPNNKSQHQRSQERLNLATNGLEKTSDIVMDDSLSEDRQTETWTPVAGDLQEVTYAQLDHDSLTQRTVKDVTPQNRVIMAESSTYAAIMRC
LAIR1 from mouse, sequence (Q8BG84 22-263): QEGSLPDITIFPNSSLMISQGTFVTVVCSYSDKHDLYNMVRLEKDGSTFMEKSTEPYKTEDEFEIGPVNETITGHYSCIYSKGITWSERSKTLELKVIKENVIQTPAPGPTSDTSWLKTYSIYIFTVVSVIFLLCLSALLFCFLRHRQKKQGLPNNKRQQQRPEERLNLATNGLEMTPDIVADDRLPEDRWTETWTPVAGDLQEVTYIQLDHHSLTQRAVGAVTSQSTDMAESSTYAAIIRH
recombinant human LAIR1-his, sequence (Q6GTX8 22-287): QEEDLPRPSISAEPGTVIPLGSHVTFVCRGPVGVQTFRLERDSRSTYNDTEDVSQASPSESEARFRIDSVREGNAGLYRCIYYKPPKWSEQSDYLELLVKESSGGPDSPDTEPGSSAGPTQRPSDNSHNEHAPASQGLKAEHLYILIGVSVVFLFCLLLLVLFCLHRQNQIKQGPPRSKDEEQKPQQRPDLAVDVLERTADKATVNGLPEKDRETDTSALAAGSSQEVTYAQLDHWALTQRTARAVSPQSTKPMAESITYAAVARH
human LAIR2, sequence (Q6ISS4 22-152): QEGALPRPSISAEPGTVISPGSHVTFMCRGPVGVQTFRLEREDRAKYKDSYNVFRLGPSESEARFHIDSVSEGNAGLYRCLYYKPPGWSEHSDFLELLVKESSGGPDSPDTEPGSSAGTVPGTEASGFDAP

One may read the Kd as a measure of binding affinity in units of concentration. In experiment [1], “recombinant cynomolgus monkey LAIR1-his (receptor)” came in with a dissociation constant (Kd) of 4.28 nM.

B1: NGM438, humanized IgG1 effector-less monoclonal antibody against LAIR1 (antibody, V domains shown)
VH: EVQLVESGGGLVQPGGSLRLSCAASGFTFNINAMNWVRQAPGKGLEWVARIRTKNYNYATFYADSVKDRFTISRDDSKNSLYLQMNSLKTEDTAVYYCVRDRAGFFAYWGQGTTVTVSS
VL: DIQMTQSPSSLSASVGDRVTITCLASQTIGTWLGWYQQKPGKAPKLLIYAATSLAEGVPSRFSGSGSGTDFTLTISSLQPEDFATYYCQQLYSTPLTFGGGTKVEIK
Regarding B1, the binding result in the experiment with human LAIR2, with LAIR1 from mouse and with LAIR1 from rat was “no binding” each time. Besides, in experiment [2], the dissociation constant Kd was 0.26 ± 0.03 nM.
